# According to the supplement of paper PMC10567573:
# B1: ZNF75A (parent)
# chain: RTHTGEQPYTCSICRRNFSRRSSL
# B2: FBF1 (parent)
# chain: QLQCSPAELQAELLHSQARLAELE
# Variants of: B1
# Assay: protein stability index of a GFP-peptide fusion (GPS, HEK-293T) (PSI 1-6); higher = more stable
# Settings: c terminus: a fixed tail appended
# 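Also: lentivirally expressed fusions sorted by FACS into six bins by GFP to DsRed ratio, PSI derived from sequencing read proportions per bin multiplied by bin number.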
row,Variant,protein stability index
1,T4S,3.14
2,T4E,3.27
3,T4Y,3.04
4,T4A,2.8
5,T4I,3.36
6,T2N,2.52
7,T2D,3.02
8,T2I,2.63
9,T2Q,2.38
10,T2F,3.15
11,T2W,2.17
12,T2Y,2.81
13,T2K,2.47
14,T2G,2.77
15,R1K,2.99
16,R1N,3.26
17,R1Q,2.4
18,R1A,3.23
19,R1T,3.14
20,R1C,5.09
21,R1P,3.15
22,R1G,3.82
23,R1W,2.67
24,R1Y,2.46
25,Y9P,2.69

row,Variant,protein stability index
1,Y9N,2.56
2,Y9A,2.68
3,Y9G,3.29
4,Y9I,2.71
5,Y9V,2.58
6,I13P,3.44
7,I13C,2.71
8,I13T,2.7
9,I13Y,1.96
10,I13H,2.81
11,I13R,2.96
12,I13G,2.42
13,I13N,3.72
14,I13Q,2.74
15,P8D,3.4
16,P8H,3.19
17,P8A,2.97
18,P8M,3.06
19,P8K,3.13
20,P8Y,3.16
21,P8L,2.87
22,P8F,3.09
23,P8Q,2.85
24,P8I,2.99

# Variants of: B2
# Assay: as above
# Settings: c terminus: a fixed tail appended
row,Variant,protein stability index
1,A18V,2.98
2,A18W,2.18
3,A18Y,2.81
4,A18T,3.42
5,E24S,2.99
6,E24V,2.81
7,E24A,3.75
8,E24N,3.29
9,E24W,2.47
10,E24G,3.23
11,E24R,3.16
12,E24P,3.18
13,E24Q,3.29
14,E24F,2.32
15,E24D,2.45
16,E24T,3.54
17,E24L,2.41
18,E24Y,2.36
19,E24H,3.56
20,E24I,3.06
21,E24K,3.44
22,E24C,3.22
23,E24M,2.83
24,E22V,2.54

row,Variant,protein stability index
1,E22N,3.21
2,E22K,2.99
3,E22G,2.91
4,E22I,2.16
5,E22T,2.34
6,E22Y,2.33
7,E22L,1.98
8,E22D,2.72
9,E22S,2.48
10,E22W,2.76
11,E22H,2.39
12,E22F,2.25
13,E22P,3.39
14,E22Q,2.53
15,E22R,2.92
16,E22C,2.67
17,E22A,2.83
18,E22M,3.12
19,L20Q,5.33
20,L20Y,4.12
21,L20E,4.63
22,L20G,4.74
23,L20A,4.91
24,L20R,4.62

row,Variant,protein stability index
1,L20D,4.91
2,L20S,4.7
3,L20I,3.59
4,L20F,3.37
5,L20T,4.66
6,L20K,4.66
7,L20C,3.35
8,L20M,3.87
9,L20P,4.76
10,L20W,4.22
11,L20V,3.34
12,L20N,4.96
13,L20H,4.05
14,R19Y,1.89
15,R19P,4.61
16,R19W,2.12
17,R19E,2.89
18,R19G,4.16
19,R19T,3.88
20,R19N,4.2
21,R19D,4.27
22,R19F,2.12
23,R19I,1.99
24,R19K,3.05

row,Variant,protein stability index
1,R19S,4.45
2,R19A,2.6
3,R19Q,2.94
4,R19V,2.55
5,R19C,2.84
6,R19H,3.34
7,R19M,1.97
8,R19L,1.79
9,A21P,3.75
10,A21Y,2.31
11,A21Q,2.67
12,A21S,3.31
13,A21D,2.68
14,A21L,2.63
15,A21W,2.8
16,A21R,3.25
17,A21T,2.86
18,A21N,3.41
19,A21I,2.55
20,A21F,2.72
21,A21V,3.14
22,A21K,3.29
23,A21H,2.98
24,A21C,3.01

row,Variant,protein stability index
1,A21M,2.31
2,A21E,2.61
3,A21G,3.79
4,L23D,5.07
5,L23G,4.71
6,L23M,3.38
7,L23C,3.66
8,L23P,4.03
9,L23F,2.75
10,L23H,4
11,L23N,4.79
12,L23R,4.14
13,L23K,4.65
14,L23A,4.59
15,L23V,3.03
16,L23E,4.48
17,L23Y,3.26
18,L23Q,4.98
19,L23I,2.59
20,L23W,3.71
21,L23T,4.18
22,L23S,4.84
